In publication PMC5660092:

Biological target: Bcl-2 (UniProt P10415)
Assay: co-IP of Flag-Beclin 1
Details: reference: wild type; sites S90

Beclin 1 (from UniProt Q14457) S90A
binding against the reference: stronger
